Laboratory results: patent US20230103631A1, “PEPTIDES AS SELECTIVE GIP RECEPTOR AGONISTS” (Sanofi, priority 2020, published 2023)
*1 amine or outer side, *2 acyl side, *3 side chain or, on linkers, in order; H or OH if unused. Where no end group is shown, it is not given here. Side-chain parts run from the residue outwards. [ ]: non-standard residue; d: D form. The star is where a group is joined. C20 diacid = O=C(O)CCCCCCCCCCCCCCCCCCC(=O)*; C18 diacid = O=C(O)CCCCCCCCCCCCCCCCC(=O)*; γGlu = O=C(O)[C@H](CCC(=O)[*:2])N[*:1]; NMeY = CN[C@@H](Cc1ccc(O)cc1)C(=O)O; AEEA = NCCOCCOCC(=O)O; Aib = CC(C)(N)C(=O)O

B1: SEQ ID NO: 8 (peptide)
peptide: [NMeY][Aib]EGTFISDLSI[Aib]K([AEEA-AEEA-γGlu-C18 diacid])DRIHQ[Aib]EFIEWLLAQGPSSGAPPPS-NH2
modifications: N-terminus assumed
SMILES: CC[C@H](C)[C@H](NC(=O)[C@H](CCCNC(=N)N)NC(=O)[C@H](CC(=O)O)NC(=O)[C@H](CCCCNC(=O)COCCOCCNC(=O)COCCOCCNC(=O)CC[C@H](NC(=O)CCCCCCCCCCCCCCCCC(=O)O)C(=O)O)NC(=O)C(C)(C)NC(=O)[C@@H](NC(=O)[C@H](CO)NC(=O)[C@H](CC(C)C)NC(=O)[C@H](CC(=O)O)NC(=O)[C@H](CO)NC(=O)[C@@H](NC(=O)[C@H](Cc1ccccc1)NC(=O)[C@@H](NC(=O)CNC(=O)[C@H](CCC(=O)O)NC(=O)C(C)(C)NC(=O)[C@H](Cc1ccc(O)cc1)NC)[C@@H](C)O)[C@@H](C)CC)[C@@H](C)CC)C(=O)N[C@@H](Cc1c[nH]cn1)C(=O)N[C@@H](CCC(N)=O)C(=O)NC(C)(C)C(=O)N[C@@H](CCC(=O)O)C(=O)N[C@@H](Cc1ccccc1)C(=O)N[C@H](C(=O)N[C@@H](CCC(=O)O)C(=O)N[C@@H](Cc1c[nH]c2ccccc12)C(=O)N[C@@H](CC(C)C)C(=O)N[C@@H](CC(C)C)C(=O)N[C@@H](C)C(=O)N[C@@H](CCC(N)=O)C(=O)NCC(=O)N1CCC[C@H]1C(=O)N[C@@H](CO)C(=O)N[C@@H](CO)C(=O)NCC(=O)N[C@@H](C)C(=O)N1CCC[C@H]1C(=O)N1CCC[C@H]1C(=O)N1CCC[C@H]1C(=O)N[C@@H](CO)C(N)=O)[C@@H](C)CC
notes: Exendin-4 derived synthetic lipidated peptide of formula I
B2: SEQ ID NO: 11 (peptide)
peptide: Y[Aib]EGTFISDLSI[Aib]K([AEEA-AEEA-γGlu-C18 diacid])DRIHQEEFIEWLLAQGPSSGAPPPS-OH
modifications: N-terminus assumed
SMILES: CC[C@H](C)[C@H](NC(=O)[C@H](Cc1ccccc1)NC(=O)[C@H](CCC(=O)O)NC(=O)[C@H](CCC(=O)O)NC(=O)[C@H](CCC(N)=O)NC(=O)[C@H](Cc1c[nH]cn1)NC(=O)[C@@H](NC(=O)[C@H](CCCNC(=N)N)NC(=O)[C@H](CC(=O)O)NC(=O)[C@H](CCCCNC(=O)COCCOCCNC(=O)COCCOCCNC(=O)CC[C@H](NC(=O)CCCCCCCCCCCCCCCCC(=O)O)C(=O)O)NC(=O)C(C)(C)NC(=O)[C@@H](NC(=O)[C@H](CO)NC(=O)[C@H](CC(C)C)NC(=O)[C@H](CC(=O)O)NC(=O)[C@H](CO)NC(=O)[C@@H](NC(=O)[C@H](Cc1ccccc1)NC(=O)[C@@H](NC(=O)CNC(=O)[C@H](CCC(=O)O)NC(=O)C(C)(C)NC(=O)[C@@H](N)Cc1ccc(O)cc1)[C@@H](C)O)[C@@H](C)CC)[C@@H](C)CC)[C@@H](C)CC)C(=O)N[C@@H](CCC(=O)O)C(=O)N[C@@H](Cc1c[nH]c2ccccc12)C(=O)N[C@@H](CC(C)C)C(=O)N[C@@H](CC(C)C)C(=O)N[C@@H](C)C(=O)N[C@@H](CCC(N)=O)C(=O)NCC(=O)N1CCC[C@H]1C(=O)N[C@@H](CO)C(=O)N[C@@H](CO)C(=O)NCC(=O)N[C@@H](C)C(=O)N1CCC[C@H]1C(=O)N1CCC[C@H]1C(=O)N1CCC[C@H]1C(=O)N[C@@H](CO)C(=O)O
notes: as for B1
B3: SEQ ID NO: 4 (peptide)
peptide: Y[Aib]EGTFISDLSI[Aib]K([AEEA-AEEA-γGlu-C18 diacid])DRIHQ[Aib]EFIEWLLAQGPSSGAPPPS-NH2
modifications: N-terminus assumed
SMILES: CC[C@H](C)[C@H](NC(=O)[C@H](CCCNC(=N)N)NC(=O)[C@H](CC(=O)O)NC(=O)[C@H](CCCCNC(=O)COCCOCCNC(=O)COCCOCCNC(=O)CC[C@H](NC(=O)CCCCCCCCCCCCCCCCC(=O)O)C(=O)O)NC(=O)C(C)(C)NC(=O)[C@@H](NC(=O)[C@H](CO)NC(=O)[C@H](CC(C)C)NC(=O)[C@H](CC(=O)O)NC(=O)[C@H](CO)NC(=O)[C@@H](NC(=O)[C@H](Cc1ccccc1)NC(=O)[C@@H](NC(=O)CNC(=O)[C@H](CCC(=O)O)NC(=O)C(C)(C)NC(=O)[C@@H](N)Cc1ccc(O)cc1)[C@@H](C)O)[C@@H](C)CC)[C@@H](C)CC)C(=O)N[C@@H](Cc1c[nH]cn1)C(=O)N[C@@H](CCC(N)=O)C(=O)NC(C)(C)C(=O)N[C@@H](CCC(=O)O)C(=O)N[C@@H](Cc1ccccc1)C(=O)N[C@H](C(=O)N[C@@H](CCC(=O)O)C(=O)N[C@@H](Cc1c[nH]c2ccccc12)C(=O)N[C@@H](CC(C)C)C(=O)N[C@@H](CC(C)C)C(=O)N[C@@H](C)C(=O)N[C@@H](CCC(N)=O)C(=O)NCC(=O)N1CCC[C@H]1C(=O)N[C@@H](CO)C(=O)N[C@@H](CO)C(=O)NCC(=O)N[C@@H](C)C(=O)N1CCC[C@H]1C(=O)N1CCC[C@H]1C(=O)N1CCC[C@H]1C(=O)N[C@@H](CO)C(N)=O)[C@@H](C)CC
notes: as for B1
B4: SEQ ID NO: 7 (peptide)
peptide: Y[Aib]EGTFISDLSI[Aib]K([AEEA-AEEA-γGlu-C20 diacid])DRIHQ[Aib]EFIEWLLAQGPSSGAPPPS-NH2
modifications: N-terminus assumed
SMILES: CC[C@H](C)[C@H](NC(=O)[C@H](CCCNC(=N)N)NC(=O)[C@H](CC(=O)O)NC(=O)[C@H](CCCCNC(=O)COCCOCCNC(=O)COCCOCCNC(=O)CC[C@H](NC(=O)CCCCCCCCCCCCCCCCCCC(=O)O)C(=O)O)NC(=O)C(C)(C)NC(=O)[C@@H](NC(=O)[C@H](CO)NC(=O)[C@H](CC(C)C)NC(=O)[C@H](CC(=O)O)NC(=O)[C@H](CO)NC(=O)[C@@H](NC(=O)[C@H](Cc1ccccc1)NC(=O)[C@@H](NC(=O)CNC(=O)[C@H](CCC(=O)O)NC(=O)C(C)(C)NC(=O)[C@@H](N)Cc1ccc(O)cc1)[C@@H](C)O)[C@@H](C)CC)[C@@H](C)CC)C(=O)N[C@@H](Cc1c[nH]cn1)C(=O)N[C@@H](CCC(N)=O)C(=O)NC(C)(C)C(=O)N[C@@H](CCC(=O)O)C(=O)N[C@@H](Cc1ccccc1)C(=O)N[C@H](C(=O)N[C@@H](CCC(=O)O)C(=O)N[C@@H](Cc1c[nH]c2ccccc12)C(=O)N[C@@H](CC(C)C)C(=O)N[C@@H](CC(C)C)C(=O)N[C@@H](C)C(=O)N[C@@H](CCC(N)=O)C(=O)NCC(=O)N1CCC[C@H]1C(=O)N[C@@H](CO)C(=O)N[C@@H](CO)C(=O)NCC(=O)N[C@@H](C)C(=O)N1CCC[C@H]1C(=O)N1CCC[C@H]1C(=O)N1CCC[C@H]1C(=O)N[C@@H](CO)C(N)=O)[C@@H](C)CC
notes: as for B1
B5: SEQ ID NO: 10 (peptide)
peptide: Y[Aib]EGTFISDLSI[Aib]K([AEEA-AEEA-γGlu-C20 diacid])DRIHQEEFIEWLLAQGPSSGAPPPS-NH2
modifications: N-terminus assumed
SMILES: CC[C@H](C)[C@H](NC(=O)[C@H](Cc1ccccc1)NC(=O)[C@H](CCC(=O)O)NC(=O)[C@H](CCC(=O)O)NC(=O)[C@H](CCC(N)=O)NC(=O)[C@H](Cc1c[nH]cn1)NC(=O)[C@@H](NC(=O)[C@H](CCCNC(=N)N)NC(=O)[C@H](CC(=O)O)NC(=O)[C@H](CCCCNC(=O)COCCOCCNC(=O)COCCOCCNC(=O)CC[C@H](NC(=O)CCCCCCCCCCCCCCCCCCC(=O)O)C(=O)O)NC(=O)C(C)(C)NC(=O)[C@@H](NC(=O)[C@H](CO)NC(=O)[C@H](CC(C)C)NC(=O)[C@H](CC(=O)O)NC(=O)[C@H](CO)NC(=O)[C@@H](NC(=O)[C@H](Cc1ccccc1)NC(=O)[C@@H](NC(=O)CNC(=O)[C@H](CCC(=O)O)NC(=O)C(C)(C)NC(=O)[C@@H](N)Cc1ccc(O)cc1)[C@@H](C)O)[C@@H](C)CC)[C@@H](C)CC)[C@@H](C)CC)C(=O)N[C@@H](CCC(=O)O)C(=O)N[C@@H](Cc1c[nH]c2ccccc12)C(=O)N[C@@H](CC(C)C)C(=O)N[C@@H](CC(C)C)C(=O)N[C@@H](C)C(=O)N[C@@H](CCC(N)=O)C(=O)NCC(=O)N1CCC[C@H]1C(=O)N[C@@H](CO)C(=O)N[C@@H](CO)C(=O)NCC(=O)N[C@@H](C)C(=O)N1CCC[C@H]1C(=O)N1CCC[C@H]1C(=O)N1CCC[C@H]1C(=O)N[C@@H](CO)C(N)=O
notes: as for B1

Biological target: T1, human GLP-1 receptor (human, UniProt P43220 24-463)
Test: cell-based or functional assay

Row | Binder | EC50 hGLP-1R 0% HSA, cAMP in HEK-293 cells [nM]
1 | B1 | > 10
2 | B2 | > 10
3 | B3 | > 10
4 | B4 | > 10
5 | B5 | > 10

Biological target: T2, human GIP receptor (human, UniProt P48546 22-466)
T2 sequence (looked up): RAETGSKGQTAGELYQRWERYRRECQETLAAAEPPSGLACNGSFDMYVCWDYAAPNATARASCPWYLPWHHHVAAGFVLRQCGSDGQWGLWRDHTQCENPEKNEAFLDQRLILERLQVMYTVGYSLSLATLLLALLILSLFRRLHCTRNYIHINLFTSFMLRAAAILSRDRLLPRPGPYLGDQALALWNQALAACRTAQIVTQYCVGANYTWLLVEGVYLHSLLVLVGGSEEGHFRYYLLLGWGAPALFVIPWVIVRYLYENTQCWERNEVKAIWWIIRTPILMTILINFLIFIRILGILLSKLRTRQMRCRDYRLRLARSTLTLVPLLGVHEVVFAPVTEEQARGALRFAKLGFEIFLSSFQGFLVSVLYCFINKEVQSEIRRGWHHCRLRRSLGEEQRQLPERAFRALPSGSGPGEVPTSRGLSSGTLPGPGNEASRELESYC
Test: cell-based or functional assay

Row | Binder | EC50 hGIPR 0% HSA, cAMP in HEK-293 cells [nM] | EC50 hGIPR 0.1% HSA, cAMP in HEK-293 cells [nM]
6 | B1 | 0.00019 | 0.00137
7 | B2 | 0.00019 | 0.00224
8 | B3 | 0.00012 | 0.00088
9 | B4 | 0.00017 | 0.00286
10 | B5 | 0.00025 | 0.00537

Biological target: T1, human GLP-1 receptor
Test: displacement of [125I]GLP-1 from hGLP-1R HEK-293 membranes, SPA

Row | Binder | IC50 [nM]
11 | B1 | 186
12 | B2 | 288
13 | B3 | 144
14 | B4 | 105
15 | B5 | 223

Biological target: T2, human GIP receptor
Test: cell-based or functional assay
Remark: another data set of the same source

Row | Binder | hGIPR EC50, cAMP in human adipocytes [nM] | hGIPR Emax, cAMP in human adipocytes [%]
16 | B1 | 0.5 | 116
17 | B2 | 1 | 122
18 | B3 | 0.5 | 116
19 | B4 | 0.3 | 121
20 | B5 | 0.4 | 127
